In patent US5767078A, “Agonist peptide dimers” (priority 1995, dated 1998):
Where two headings read alike, the source gives them in different places. Bridge positions count the residues as written; N and C are the ends. Ends that are not written are not given here. Peptide text beside a SMILES is read from it.

Columns and labels:
[1] = target: T1, extracellular domain of the human erythropoietin receptor (EPO binding protein, EBP) (Homo sapiens, UniProt P19235); assay: Immobilized EBP based [125I]EPO competition binding assay; conditions: for Relative Binding (binding relative to Seq. I. D. No. 8): IC50 in [125I]EPO competition on EBP beads, relative to Seq. I. D. No. 8 (IC50 5 μM)
T1 construct: made in house; host or cells: E. coli
T1 sequence (P19235 25-250 limits assumed): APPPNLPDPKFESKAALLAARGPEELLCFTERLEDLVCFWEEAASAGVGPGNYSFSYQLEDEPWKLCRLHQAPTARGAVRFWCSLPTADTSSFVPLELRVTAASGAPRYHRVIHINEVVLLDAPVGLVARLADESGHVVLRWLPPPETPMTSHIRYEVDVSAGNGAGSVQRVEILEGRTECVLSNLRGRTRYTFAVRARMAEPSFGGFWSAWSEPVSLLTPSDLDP
Experimental: The iodoacetyl activation chemistry of Sufolink beads (Pierce Chemical Co, Rockford, Ill.) is specific for free thiols and assures that the linkage is not easily reversible. EBP-Sulfolink beads were made as follows: SulfoLink gel suspension (10 ml) was mixed with of coupling buffer (40 ml: 50 mM Tris, pH 8.3, 5 mM EDTA) and the gel was allowed to settle. […] The mixture was rocked gently for 30 minutes at room temperature and the beads were allowed to settle for 1 hour at room temperature. The supernatant was removed and retained. The beads were washed twice with 20 ml of coupling buffer. The washes were recovered as well. The beads were then treated with 20 ml of 0.05M cysteine for 30 minutes at room temperature to block unbound sites. Finally, the beads were washed with 50 ml of 1M NaCl, then with 30 ml of PBS, and resuspended in 20 ml of PBS and stored at 4° C. The amount of EBP which was covalently bound to the beads was determined by comparing the OD280 of the original EBP solution to the total OD280 recovered in the reaction supernatant and the two 20 ml washes.
Competitive binding analysis assays of candidate peptides and dimer peptides were performed as outlined below. Individual peptides were dissolved in DMSO to prepare a stock solution […]. Dimer peptides were contained within PBS at a concentration of 5 mM.
Initial assay points with no added peptide were included in each assay to determine total binding. Binding mixtures were incubated overnight at room temperature with gentle rocking. The beads were then collected using Micro-columns (Isolab, Inc.) and washed with 3 mL of wash buffer. The columns containing the washed beads were placed in 12×75 mm glass tubes and bound radioactivity levels determined in a gamma counter.

[2] = target: T2, murine EPO receptor (Mus musculus, UniProt P14753); assay: EPO dependent cell proliferation assay, FDC-P1/ER cells; format: cell-based; conditions: for EPO-ED50 murine receptor / change in potency of dimer versus parent monomer (in parentheses), murine receptor: FDC-P1/ER; for EPO-ED50 murine receptor: [3H]thymidine incorporation, amount giving half of maximal activity obtained with EPO; for change in potency of dimer versus parent monomer (in parentheses), murine receptor: ratio of ED50 values
T2 construct: expressed in transfected cells; host or cells: FDC-P1/ER cells
T2 sequence (P14753 25-507): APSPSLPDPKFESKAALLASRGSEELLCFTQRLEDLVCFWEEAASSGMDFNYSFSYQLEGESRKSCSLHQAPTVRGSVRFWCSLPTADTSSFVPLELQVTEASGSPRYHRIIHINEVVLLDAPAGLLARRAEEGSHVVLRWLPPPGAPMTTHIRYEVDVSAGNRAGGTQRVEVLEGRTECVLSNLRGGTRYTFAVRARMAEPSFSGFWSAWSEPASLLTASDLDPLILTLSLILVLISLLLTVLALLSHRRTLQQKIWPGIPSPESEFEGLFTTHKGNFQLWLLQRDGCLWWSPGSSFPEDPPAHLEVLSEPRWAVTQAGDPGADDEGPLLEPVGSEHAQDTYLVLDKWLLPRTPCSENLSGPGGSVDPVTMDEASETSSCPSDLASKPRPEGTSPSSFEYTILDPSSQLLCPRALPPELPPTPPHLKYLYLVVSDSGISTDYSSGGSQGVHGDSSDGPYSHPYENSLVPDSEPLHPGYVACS
Experimental: (§1) After 24 hours, the cells were counted, resuspended at 800,000 cells/ml and dispensed at 40,000 cells/well. Stock solutions of the peptide dimer (5 mM in PBS) and peptide (10 mM in DMSO) were prepared and dispensed in triplicate to final concentrations of 1×10^-10 M through 1×10^-5 M and adjusted to a final volume of 0.2 ml. […] After a 42 hr incubation at 37° C. (ca. 2 cell doublings) 1 μCi/well of [^3 H] thymidine was added and the incubation continued for 6 hr at which time the cells were harvested and counted to assess [^3 H]thymidine incorporation as a measure of cell proliferation.

[3] = target: T3, truncated human EPO receptor (Homo sapiens, UniProt P19235); assay: EPO dependent cell proliferation assay, FDC-P1/trER cells; format: cell-based; conditions: for EC50: read-out: EPO-ED50 truncated human receptor; for change in potency of dimer versus parent monomer (in parentheses), truncated human receptor: ratio of ED50 values
T3 construct: expressed in transfected cells; host or cells: FDC-P1/trER cells (murine FDC-P1 derived)
T3 sequence (P19235 25-468 limits assumed): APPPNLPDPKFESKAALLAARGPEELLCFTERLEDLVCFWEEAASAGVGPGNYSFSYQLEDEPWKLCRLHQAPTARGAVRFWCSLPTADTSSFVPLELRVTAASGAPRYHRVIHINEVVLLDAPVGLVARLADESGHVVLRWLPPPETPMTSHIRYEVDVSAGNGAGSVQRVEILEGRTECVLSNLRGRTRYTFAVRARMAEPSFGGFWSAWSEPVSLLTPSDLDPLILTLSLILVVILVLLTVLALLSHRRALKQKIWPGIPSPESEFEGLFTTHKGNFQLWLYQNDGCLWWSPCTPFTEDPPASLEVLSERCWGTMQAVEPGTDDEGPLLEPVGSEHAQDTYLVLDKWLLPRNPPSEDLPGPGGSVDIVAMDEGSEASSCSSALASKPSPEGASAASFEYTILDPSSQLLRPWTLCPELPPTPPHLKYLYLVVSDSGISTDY
Experimental: as §1

[4] = FDC-P1/trER, [3H]thymidine incorporation, amount giving half of maximal activity obtained with EPO

Relative Binding (binding relative to Seq. I. D. No. 8) [1]	EPO-ED50 murine receptor [2] [nM]	EC50 [3, 4] [nM]	Compound	further results
60	2000	100	mPEG/Seq. I. D. No. 8, peak #1: mono-PEG conjugate of peptide SEQ ID NO: 8 with m-SPA-PEG (MW ca. 5000), one PEG coupled; control (GGTYSCHFGPLTWVCKPQGG-NH2; disulfide 6-15 (inferred); not fully specified; also: one mPEG 5000 (m-SPA-PEG) conjugated, site not given here) [reference compound]	
> 40	1000	400	mPEG/Seq. I. D. No. 8, peak #2: conjugate of peptide SEQ ID NO: 8 with m-SPA-PEG (MW ca. 5000), two PEG molecules coupled; control (GGTYSCHFGPLTWVCKPQGG-NH2; disulfide 6-15 (inferred); not fully specified; also: two mPEG 5000 (m-SPA-PEG) conjugated, sites not given here) [reference compound]	
4	30	60	Ac-GGTYSCHFGPLTWVCKPQGG (Ac-GGTYSCHFGPLTWVCKPQGG-NH2; disulfide 6-15 (inferred)) [Seq. I. D. No. 20]	

Further lines, the compound ahead of its results:

Compound	Relative Binding (binding relative to Seq. I. D. No. 8) [1]	EPO-ED50 murine receptor [2] [nM]	EC50 [3, 4] [nM]	further results
SAP2/Seq. I. D. No. 8 covalent dimer #2: PEG (SPA2, MW ca. 3400) dimer of peptide GGTYSCHFGPLTWVCKPQGG, lot #2, Example 3 (GGTYSCHFGPLTWVCKPQGG-NH2; disulfide 6-15 (inferred); not fully specified)	3	10	2	increase in potency versus parent peptide, murine receptor line [2]: 10 fold; change in potency of dimer versus parent monomer (in parentheses), murine receptor [2]: 10 X; increase in potency versus parent peptide, human receptor line [3]: 45 fold; change in potency of dimer versus parent monomer (in parentheses), truncated human receptor ([3]; FDC-P1/trER): 45 X
CC(C)C[C@@H]1NC(=O)[C@@H]2CCCN2C(=O)CNC(=O)[C@H](Cc2ccccc2)NC(=O)[C@H](Cc2c[nH]cn2)NC(=O)[C@@H](NC(=O)[C@H](CO)NC(=O)[C@H](Cc2ccc(O)cc2)NC(=O)[C@@H](NC(=O)CNC(=O)CN)[C@@H](C)O)CSSC[C@@H](C(=O)N[C@@H](CCCCN)C(=O)N2CCC[C@H]2C(=O)N[C@@H](CCC(N)=O)C(=O)NCC(=O)NCC(N)=O)NC(=O)[C@H](C(C)C)NC(=O)[C@H](Cc2c[nH]c3ccccc23)NC(=O)[C@H]([C@@H](C)O)NC1=O [Seq. I. D. No. 8] (H-GGTYSCHFGPLTWVCKPQGG-NH2; disulfide 6-15)				EC50 [3]: 90 nM
SAP2/Seq. I. D. No. 20 covalent dimer: PEG (SPA2) dimer of peptide Ac-GGTYSCHFGPLTWVCKPQGG, Example 5 (Ac-GGTYSCHFGPLTWVCKPQGG-NH2; disulfide 6-15 (inferred); also: PEG (SPA2) covalent dimer)	12	200	50	change in potency of dimer versus parent monomer (in parentheses), murine receptor [2]: -7 X
CC(C)C[C@@H]1NC(=O)[C@@H]2CCCN2C(=O)CNC(=O)[C@H](Cc2ccccc2)NC(=O)[C@H](Cc2c[nH]cn2)NC(=O)[C@@H](NC(=O)[C@@H](N)CO)CSSC[C@@H](C(=O)N[C@@H](CCCCN)C(N)=O)NC(=O)[C@H](C(C)C)NC(=O)[C@H](Cc2c[nH]c3ccccc23)NC(=O)[C@H]([C@@H](C)O)NC1=O [peptide (SEQ ID NO: 18)] (H-SCHFGPLTWVCK-NH2; disulfide 2-11)				activity in the in vitro cell proliferation assay (in words) ([2]; cell line not given): inactive
SAP2/Seq. I. D. No. 13 covalent dimer: PEG (SPA2) dimer of peptide GGTYSCHFGPLTWVCKPQ, Example 4 (GGTYSCHFGPLTWVCKPQ-NH2; disulfide 6-15 (inferred); also: PEG (SPA2) covalent dimer)			2	change in potency of dimer versus parent monomer (in parentheses), truncated human receptor ([3]; FDC-P1/trER): 10 X
dimeric peptide: PEG (SPA2) dimer of peptide SCHFGPLTWVCK (SEQ ID NO: 18), Example 7 (SCHFGPLTWVCK-NH2; disulfide 2-11 (inferred); also: PEG (SPA2) covalent dimer)				proliferation (cpm) relative to background ([3]; 10^-5 M, human EPO receptor cell line, FIG. 8): twice as many cpm as background
SAP2/Seq. I. D. No. 8 covalent dimer #1: PEG (SPA2, MW ca. 3400) dimer of peptide GGTYSCHFGPLTWVCKPQGG, lot #1, Example 2 (GGTYSCHFGPLTWVCKPQGG-NH2; disulfide 6-15 (inferred); not fully specified)	4	10	1.5	IC50 ([1]; concentration reducing [125I]EPO binding to EBP beads by 50%, 0.5 nM [125I]EPO): 20000 nM; increase in potency versus parent peptide, murine receptor line [2]: 10 fold; change in potency of dimer versus parent monomer (in parentheses), murine receptor [2]: 10 X; ED50, cell line containing the murine EPO receptor ([2]; text of Example 11): 10 nM; increase in potency versus parent peptide, human receptor line [3]: ~60 fold; change in potency of dimer versus parent monomer (in parentheses), truncated human receptor ([3]; FDC-P1/trER): 60 X; ED50, cell line containing the human EPO receptor ([3]; text of Example 11): 1.5 nM
GGLYACHMGPMTWVCQPLRG [Seq. I. D. No. 14]		100	80	
